Test results as given in paper doi:10.1101/2024.12.16.628611.

Target: His6-BacA_(F134R), purified (Asticcacaulis biprosthecum)
Assay: SEC; 500 μl of purified protein from the polymerization assay (Buffer C) on Superdex 200 Increase 10/300 GL, calibrated with standard proteins

Substance: His6-BacA_(F134R), purified (natural protein)
- stoichiometry N: 2
